Literature values, collected in paper PMC7287924.
pKd: −log10 of the molar value.

Target: CD47 (Homo sapiens) (UniProt Q08722)
Sequence (Q08722 19-323): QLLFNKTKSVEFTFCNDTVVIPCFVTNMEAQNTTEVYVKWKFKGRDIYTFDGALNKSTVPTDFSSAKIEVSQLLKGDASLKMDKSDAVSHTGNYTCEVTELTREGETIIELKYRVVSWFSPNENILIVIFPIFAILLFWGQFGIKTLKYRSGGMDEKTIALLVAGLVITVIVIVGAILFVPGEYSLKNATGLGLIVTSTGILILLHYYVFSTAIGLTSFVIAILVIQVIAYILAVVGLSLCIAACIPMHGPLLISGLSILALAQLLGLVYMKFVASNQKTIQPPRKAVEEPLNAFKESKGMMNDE

TSP1, sequence (P07996 19-1170): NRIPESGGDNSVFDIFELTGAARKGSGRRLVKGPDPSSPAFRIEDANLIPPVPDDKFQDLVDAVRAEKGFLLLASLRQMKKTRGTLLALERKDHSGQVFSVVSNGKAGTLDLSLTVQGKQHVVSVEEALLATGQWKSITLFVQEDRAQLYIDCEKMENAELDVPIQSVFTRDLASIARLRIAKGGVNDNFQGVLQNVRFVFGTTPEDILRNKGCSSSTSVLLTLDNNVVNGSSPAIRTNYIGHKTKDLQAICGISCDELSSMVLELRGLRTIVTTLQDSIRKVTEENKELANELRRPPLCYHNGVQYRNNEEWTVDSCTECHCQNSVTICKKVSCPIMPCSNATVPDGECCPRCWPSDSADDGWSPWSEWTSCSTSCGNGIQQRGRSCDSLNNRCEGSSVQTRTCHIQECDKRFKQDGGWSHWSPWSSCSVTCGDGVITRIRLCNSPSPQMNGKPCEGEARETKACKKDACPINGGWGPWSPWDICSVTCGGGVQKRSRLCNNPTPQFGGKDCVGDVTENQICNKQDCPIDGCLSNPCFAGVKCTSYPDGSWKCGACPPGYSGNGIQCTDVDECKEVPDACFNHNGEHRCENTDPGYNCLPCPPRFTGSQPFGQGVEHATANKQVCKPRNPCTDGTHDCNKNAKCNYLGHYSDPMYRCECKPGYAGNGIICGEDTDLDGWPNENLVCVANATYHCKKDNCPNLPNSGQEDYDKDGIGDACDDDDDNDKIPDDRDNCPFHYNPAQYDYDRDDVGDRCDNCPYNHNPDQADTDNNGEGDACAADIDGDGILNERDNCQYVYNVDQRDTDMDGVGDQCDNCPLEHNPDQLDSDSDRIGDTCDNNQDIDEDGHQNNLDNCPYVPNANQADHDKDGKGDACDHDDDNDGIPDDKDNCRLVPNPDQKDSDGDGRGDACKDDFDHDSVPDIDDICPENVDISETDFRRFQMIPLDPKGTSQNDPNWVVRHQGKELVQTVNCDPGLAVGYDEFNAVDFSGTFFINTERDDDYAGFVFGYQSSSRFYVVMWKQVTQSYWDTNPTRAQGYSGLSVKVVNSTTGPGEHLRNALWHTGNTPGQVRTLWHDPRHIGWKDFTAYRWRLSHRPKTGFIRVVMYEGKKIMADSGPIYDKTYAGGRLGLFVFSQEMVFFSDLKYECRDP

pKd: 11.00
Substance: TSP1 (from UniProt P07996)
